This note sets out measurements from patent US20140336363A1 (Hoffmann-La Roche, published 2014).

Changes are numbered by the printed parent chain. Like-named read-outs stand apart in the source and are kept apart here.

The target in assay [1] is mutant CSF-1R L301S Y969F (human) (UniProt P07333). Kind of assay: cell-based or functional assay.
In assay [2] the target is T1, full-length wildtype CSF-1R (wt CSF-1R) (human, UniProt P07333 20-972). Description: cell-based or functional assay.
Assay [3] has as its target CSF-1R ECD (R&D-Systems 329-MR or in-house subcloned pCMV-presS-HisAvitag-hCSF-1R-ECD) (human) (UniProt P07333). Description: SPR (BIACORE A100), 35 C, antibody captured, CSF-1R ECD in solution.
Assay [4] has the same target. Kind of assay: SPR cross-competition, 25 C; second antibody on CSF-1R held by captured Antibody 1; competitor <CSF-1R>10H2.2F12.
The target is the same in assay [5]. Kind of assay: SPR cross-competition, 25 C; second antibody on CSF-1R held by captured Antibody 1; competitor <CSF-1R>9D11.2E8.
Assay [6] shares this target. Kind of assay: SPR cross-competition, 25 C; second antibody on CSF-1R held by captured Antibody 1; competitor SC-02, clone 2-4A5.
Assay [7] deals with huCSF-1R-huFc chimera (soluble extracellular domain) (human) (UniProt P07333). Description: competition ELISA: antibody on plate-bound huCSF-1R-huFc, then 3 ng/ml CSF-1. (In general: An ELISA detects its analyte on a solid surface through an enzyme-linked reagent.)
In another assay the target is T2, CSF-1R ECD (D1-D3) (human, UniProt P07333 20-296, limits assumed).
T2 construct: also called domains D1 to D3 of the extracellular domain of human CSF-1R
The assay is described as in WO2011070024, Example 10 (method not told here).

In assay [8] the target is T3, CSF-1R ECD (R&D-Systems 329-MR or in-house subcloned pCMV-presS-HisAvitag-hCSF-1R-ECD) (human, UniProt P07333 20-517).
T3 construct: also called CSF-1R (R&D-Systems Cat. No. 329-MR); human CSF-1R Extracellular Domain (comprising domains D1 to D5)
Description: SPR (BIACORE A100), 35 C, antibody captured, CSF-1R ECD in solution. The procedure: CSF-1R ECD (R&D-Systems 329-MR or in-house subcloned pCMV-presS-HisAvitag-hCSF-1R-ECD were added in various concentrations in solution. Association was measured by an CSF-1R-injection of 1.5 minutes at 35° C.; dissociation was measured by washing the chip surface with buffer for 10 minutes at 35° C. Anti CSF-IR SC-02, clone 2-4A5 (Santa Cruz Biotechnology, US; see also Sherr, C. J., et al., Cell 41 (1985) 665-676), which inhibits the ligand-receptor interaction, was used as reference control.
Background: SPR reads the build-up and loss of mass on a sensor chip optically.

Assay [9] concerns the target T4, huCSF-1R-huFc chimera (soluble extracellular domain) (human, UniProt P07333 20-517).
T4 construct: Captured on the plate by anti Fc-gamma; also called huCSF-1R ECDhuFc chimera; not shown: human Fc part
Kind of assay: competition ELISA: antibody on plate-bound huCSF-1R-huFc, then 3 ng/ml CSF-1. The procedure: At the beginning, plates were coated with […] goat F(ab′)₂ biotinylated anti Fcγ (Jackson ImmunoResearch., Cat. No. 109-006-170) for 1 hour (h).
Thereafter the wells were blocked with PBS supplemented with 0.2% Tween®-20 and 2% BSA (Roche Diagnostics GmbH, DE) for 0.5 h. 75 ng/ml of huCSF-1R-huFc chimera (soluble extracellular domain) was immobilized to plate for 1 h. Then dilutions of purified antibodies in PBS/0.05% Tween20/0.5% BSA were incubated for 1 h. After adding a mixture of 3 ng/ml CSF-1 (Biomol, DE, Cat. No. 60530), 50 ng/ml biotinylated anti CSF-1 clone BAF216 (R&D Systems, UK) and 1:5000 diluted streptavidin HRP (Roche Diagnostics GmbH, DE, Cat. No. 11089153001) for 1 h the plates were washed 6 times with PBST. Anti CSF-IR SC-02, clone 2-4A5 (Santa Cruz Biotechnology, US), which inhibits the ligand-receptor interaction, was used as positive control. Plates were developed with freshly prepared BM Blue® POD substrate solution (BM Blue®:3,3″-5,5″-Tetramethylbenzidine, Roche Diagnostics GmbH, DE, Cat. No. 11484281001) for 30 minutes at RT. Absorbance was measured at 370 nm. […] Anti CSF-IR SC-02, clone 2-4A5 (Santa Cruz Biotechnology, US), which inhibits the ligand-receptor interaction, was used as reference control.

Assay [10] concerns the target T1, full-length wildtype CSF-1R (wt CSF-1R). Kind of assay: cell-based or functional assay. The source holds these as a separate data set.
The target is the same in assay [11]. Description: cell-based or functional assay. The source holds these as a separate data set.

T3 sequence (P07333 20-517 limits assumed): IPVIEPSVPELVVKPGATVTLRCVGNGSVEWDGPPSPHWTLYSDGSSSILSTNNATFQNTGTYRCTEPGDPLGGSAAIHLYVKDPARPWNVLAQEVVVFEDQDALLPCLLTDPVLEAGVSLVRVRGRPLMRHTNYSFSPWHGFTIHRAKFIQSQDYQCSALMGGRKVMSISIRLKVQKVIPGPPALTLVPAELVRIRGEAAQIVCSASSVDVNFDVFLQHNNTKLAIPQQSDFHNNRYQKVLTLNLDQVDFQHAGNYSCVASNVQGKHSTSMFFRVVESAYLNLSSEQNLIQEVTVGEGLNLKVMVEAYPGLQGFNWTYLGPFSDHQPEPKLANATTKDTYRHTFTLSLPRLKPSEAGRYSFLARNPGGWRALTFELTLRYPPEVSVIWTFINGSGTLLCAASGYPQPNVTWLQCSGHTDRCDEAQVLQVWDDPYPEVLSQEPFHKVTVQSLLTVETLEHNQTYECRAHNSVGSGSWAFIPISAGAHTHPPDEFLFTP
Chain of CSF-1R ECD (R&D-Systems 329-MR or in-house subcloned pCMV-presS-HisAvitag-hCSF-1R-ECD) (human) (P07333 20-517 limits assumed): as above
Chain of mutant CSF-1R L301S Y969F (human) (P07333 20-972 L301S/Y969F limits assumed): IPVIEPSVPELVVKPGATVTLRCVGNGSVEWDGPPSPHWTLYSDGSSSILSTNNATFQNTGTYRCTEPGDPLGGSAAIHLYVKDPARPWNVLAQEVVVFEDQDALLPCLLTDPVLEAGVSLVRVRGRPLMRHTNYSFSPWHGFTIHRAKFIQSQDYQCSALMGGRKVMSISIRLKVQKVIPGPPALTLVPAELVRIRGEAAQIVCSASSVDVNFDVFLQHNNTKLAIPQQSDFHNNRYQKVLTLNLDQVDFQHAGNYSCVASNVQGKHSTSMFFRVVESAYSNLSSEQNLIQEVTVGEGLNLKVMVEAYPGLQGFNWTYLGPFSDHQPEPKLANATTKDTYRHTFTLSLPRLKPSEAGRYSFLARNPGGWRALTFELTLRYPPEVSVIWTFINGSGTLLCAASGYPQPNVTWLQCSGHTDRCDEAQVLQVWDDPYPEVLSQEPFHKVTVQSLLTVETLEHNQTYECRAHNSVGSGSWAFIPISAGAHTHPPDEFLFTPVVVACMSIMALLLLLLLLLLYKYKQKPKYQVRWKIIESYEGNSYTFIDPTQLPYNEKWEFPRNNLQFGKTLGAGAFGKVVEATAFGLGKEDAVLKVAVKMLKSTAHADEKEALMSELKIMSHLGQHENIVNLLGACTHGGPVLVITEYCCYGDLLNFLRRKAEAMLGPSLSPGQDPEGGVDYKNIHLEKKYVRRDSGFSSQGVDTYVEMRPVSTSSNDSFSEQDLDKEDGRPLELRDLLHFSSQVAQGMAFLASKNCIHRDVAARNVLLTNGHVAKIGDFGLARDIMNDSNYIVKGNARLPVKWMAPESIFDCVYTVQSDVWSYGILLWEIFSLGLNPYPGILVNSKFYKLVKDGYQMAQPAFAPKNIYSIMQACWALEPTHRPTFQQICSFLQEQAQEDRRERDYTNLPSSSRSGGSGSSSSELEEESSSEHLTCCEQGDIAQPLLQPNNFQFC
T1 sequence (P07333 20-972 limits assumed): as the sequence (P07333 20-972 L301S/Y969F limits assumed) above, with S282L, F950Y counted along it
T2 sequence (P07333 20-296 limits assumed): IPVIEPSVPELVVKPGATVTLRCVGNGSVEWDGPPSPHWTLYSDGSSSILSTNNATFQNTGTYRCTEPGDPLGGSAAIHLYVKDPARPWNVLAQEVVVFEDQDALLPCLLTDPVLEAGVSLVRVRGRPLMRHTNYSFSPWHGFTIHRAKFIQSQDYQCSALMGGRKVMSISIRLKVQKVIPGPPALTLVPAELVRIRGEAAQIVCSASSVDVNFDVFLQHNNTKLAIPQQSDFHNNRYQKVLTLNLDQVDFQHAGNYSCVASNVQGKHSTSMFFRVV
Chain of huCSF-1R-huFc chimera (soluble extracellular domain) (human) (P07333 20-517, change not shown): as the sequence (P07333 20-517 limits assumed) above
T4 sequence (P07333 20-517, change not shown): as the sequence (P07333 20-517 limits assumed) above

In assay [1], “Anti CSF-1R SC-02, clone 2-4A5 (Santa Cruz Biotechnology, US) (antibody)” returned a % Inhibition of growth of NIH3T3-mutant CSF-1R cells, 10 µg/ml antibody of 34% and a % survival of NIH3T3-mutant CSF-1R cells, 10 µg/ml antibody (CellTiterGlo) of 66%. Besides, in assay [2], the % Inhibition of growth of NIH3T3-wtCSF-1R cells, 10 µg/ml antibody was found to be 38%; the % inhibition of CSF-1 induced growth of BeWo cells, 10 µg/ml antibody concentration worked out at 40%; the % survival of NIH3T3-wtCSF-1R cells, 10 µg/ml antibody (CellTiterGlo) is 62%; the IC50 CSF-1R Phosphorylation (CSF-1-induced, NIH3T3-CSF-1R cells, ELISA of lysate) came out at 0.412 µg/mL. Further, the IC50 of inhibition of survival of human monocytes with huCSF-1 (CellTiterGlo) in assay [2] was 2.4 nM. In assay [3], this molecule yielded a Kd of 2.73 nM, a koff of 0.00139 s⁻¹, a kon of 509000 M⁻¹ s⁻¹ and a t1/2 of 8.31 min. In [4], the percentage (%) of expected binding response was 42%. The percentage (%) of expected binding response in [5] is 37%. Further, the percentage (%) of expected binding response in assay [6] was -2%. In assay [7], this molecule yielded an IC50 of 0.0309 µg/mL.
“goat polyclonal anti-CSF-1R antibody ab10676 (abcam)”: the percentage of inhibition the growth of NIH3T3-mutant CSF-1R L301S Y969F recombinant cells, up to 20 µg/ml in [1] was below 0%.

B1: <CSF-1R>10H2.2F12 (antibody, V domains shown)
VH: QVQLKQSGPGLVQPSQSLSITCTVSGFSLTTYGINWVRLSPGKGLEWLGMIWRGGNTDYNAAFMSRLTITKDNSKNHVFFQLNSLQPDDTAIYFCAKSGGLRLYYAMDYWGQGTSVTVSS
VL: DVVMTQPPLSLPVSLGDQASISCRSSQSLVHSNGNTYLHWYLQKPGQSPKLLIYKVSNRLSGVPDRFSGSGSGTDFTLKISRVEAEDLGVYFCSQSSHVPWTFGGGTKLEIRR
notes: Mouse monoclonal antibody from a hybridoma
Consider B1, for which the binding result with CSF-1R ECD (D1-D3) is recorded as “no binding”. In assay [1], this molecule yielded a % Inhibition of growth of NIH3T3-mutant CSF-1R cells, 10 µg/ml antibody of 65% and a % survival of NIH3T3-mutant CSF-1R cells, 10 µg/ml antibody (CellTiterGlo) of 35%. In assay [2], this molecule had a % Inhibition of growth of NIH3T3-wtCSF-1R cells, 10 µg/ml antibody of 97%; a % inhibition of CSF-1 induced growth of BeWo cells, 10 µg/ml antibody concentration of 100%; a % survival of NIH3T3-wtCSF-1R cells, 10 µg/ml antibody (CellTiterGlo) of 3%; an IC50 CSF-1R Phosphorylation (CSF-1-induced, NIH3T3-CSF-1R cells, ELISA of lysate) of 0.0445 µg/mL. The IC50 of inhibition of survival of human monocytes with huCSF-1 (CellTiterGlo) in assay [2] came to 0.6 nM. Further, in assay [8], binding was characterised by a dissociation constant (Kd) of 0.78 nM, the koff was 0.0004 s⁻¹, the kon worked out at 520000 M⁻¹ s⁻¹ and the t1/2 stood at 28.6 min.

B2: <CSF-1R>9D11.2E8 (antibody, V domains shown)
VH: DVKLVESGGGLVKLGGSLKLSCAASGFTFSSYYMSWIRQTPDKRLELVAAIKTNGDNFDYPDTVKGRFTISRDNAKNTLYLQMNSLKSEDTALYYCARSQLLRYYAMDYWGQGTSVTVSS
VL: B1 VL with P7T, L60F, R82S, R112K
notes: Mouse monoclonal antibody from a hybridoma (NMRI mice), captured by anti mouse Fc-gamma in SPR; also called deposited antibody DSM ACC2920
Consider B2, for which, in the assay with CSF-1R ECD (D1-D3), the binding result was “no binding”. Moreover, the IC50 in assay [9] was 0.01 µg/mL. For the same molecule, the “IC50 of inhibition of survival of human monocytes with huCSF-1 (CellTiterGlo)” value in assay [10] was 0.7 nM. In addition, the “IC50 CSF-1R Phosphorylation (CSF-1-induced, NIH3T3-CSF-1R cells, ELISA of lysate)” value in assay [11] is 0.0728 µg/mL. In assay [8], the Kd came out at 0.77 nM, the koff was found to be 0.00036 s⁻¹, the kon was 470000 M⁻¹ s⁻¹ and the t1/2 is 32 min.

By Kd is commonly meant a measure of binding affinity in units of concentration. A low value points to a tighter complex. For orientation: koff means the first-order rate constant of dissociation. By kon is commonly meant the second-order rate constant of association. A lower kon goes with slower complex formation. Broadly, the IC50 is the concentration at which inhibition is half-maximal. A lower IC50 goes with greater potency in that assay.
